Laboratory results as given in paper doi:10.1101/2020.08.28.272104.

Molecular target: triple-helical collagen peptide Ac-(GPO)2-GPO-GPQ-GLA-GQR-GIV-GLO-GQR-GER-(GPO)3G-NH2
Assay: ITC

MMP-1(E200A), active-site mutant of matrix metalloproteinase 1 (enzyme)
Kd: 250 to 500 nM
stoichiometry N: 1
